{"source": "paper PMC7292776", "biological_target": "typhoid toxin PltB homopentamer (S. Typhi PltB, wild type) (Salmonella enterica serovar Typhi) (UniProt Q8Z6A3)", "experiment": "crystal structure", "data": [{"substance": "typhoid toxin PltB homopentamer (S. Typhi PltB, wild type) (from UniProt Q8Z6A3 1-137) (natural protein)", "values": [{"measurement": "stoichiometry N", "value": 5}]}]}
